Source: article PMC4911086 (PLoS ONE, 2016)
Values belong to the molecule of their own block, whether it stands above or below them.

Tests used:
RANKL (Homo sapiens) = RANKL (Homo sapiens) (UniProt O14788); details: cited from earlier work
recombinant human RANK = biological target: T1, recombinant human RANK (human, UniProt Q9Y6Q6 30-212); assay: ELISA; polyvinyl 96-well plates coated with 500 ng/well recombinant human RANK; RANKL (500 ng/mL in PBS-T with 0.1% BSA) pre-incubated with serially diluted GM-0111 for about 16 hrs at 4°C, then 1 hr at 37°C on the RANK-coated wells; bound RANKL detected with anti-RANKL antibody and HRP-conjugated anti-goat IgG, absorbance at 450 nm; details: both partners purified
T1 construct: human RANK, recombinant, R&D Systems cat# 683-RK; The vendor's product 683-RK is, as far as I recall, an Fc chimera of the RANK extracellular domain (human IgG1 Fc, C-terminal); also called rRANK; source: bought: R&D Systems (cat# 683-RK)
T1 sequence (looked up): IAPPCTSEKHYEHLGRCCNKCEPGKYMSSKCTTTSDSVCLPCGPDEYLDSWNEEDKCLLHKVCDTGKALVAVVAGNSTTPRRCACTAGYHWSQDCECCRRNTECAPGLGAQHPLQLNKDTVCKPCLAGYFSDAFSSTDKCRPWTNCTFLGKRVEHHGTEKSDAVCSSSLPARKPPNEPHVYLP

Molecule: OPG (from UniProt O00300)
- Kd (RANKL (Homo sapiens)): 4.24 nM

- binding result (recombinant human RANK): binds
B1: recombinant human RANKL (ligand, UniProt O14788 140-317, looked up)
chain: IRAEKAMVDGSWLDLAKRSKLEAQPFAHLTINATDIPSGSHKVSLSSWYHDRGWAKISNMTFSNGKLIVNQDGFYYLYANICFRHHETSGDLATEYLQLMVYVTKTSIKIPSSHTLMKGGSTKYWSGNSEFHFYSINVGGFFKLRSGEEISIEVSNPSLLDPDQDATYFGAFKVRDID
notes: The vendor's product is, as far as I recall, a soluble extracellular fragment of human RANKL; also called rRANKL; source: bought: R&D Systems (cat# 390-TN)
